Laboratory results reported in publication PMC11986105 (2025).
“And” between values parts separate entries of the source, which are not always exact repeats. Equal values may be shown once. Ends that are not written are not given here.

Columns and labels:
[1] = biological target: T1, E. coli K-12 BamA β-barrel (residues 421–810), N-terminally biotinylated (E. coli K-12 (strain MG1655), UniProt P0A940 421-810, biotin on the N-terminal Avitag (BirA ligase)); assay: SPR
[2] = biological target: T1, E. coli K-12 BamA β-barrel (residues …); assay: SPR; apparent, BamA pre-equilibrated with 2 uM darobactin
[3] = biological target: T1, E. coli K-12 BamA β-barrel (residues …); assay: SPR; remark: listed apart in the source

Row | Binder | koff [1] | Kd [2] | Kd [3]
1 | WNWSKSF (also: post-translationally formed bicyclic ring structures) [darobactin] | 0.012 s⁻¹ | – | –
2 | FLWFYHRPVRGFDCG (also: cyclic peptide, closure not given here) [cyclic peptide CP1] | 0.0023 s⁻¹ | ~5 nM | 6.6 nM and ~8 nM
